Data from the supplement of paper PMC9732359.
± gives the uncertainty stated by the source.

Assay: protein stability index of a GFP-peptide fusion (yeast GPS) (PSI 1-4); higher = more stable; sorted into four equal gates, so the index is relative within each strain
In short: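 Tiled 17-residue yeast protein peptides were fused downstream of GFP in a plasmid that also expresses Cherry, and the pooled library was carried in yeast. Mid-log cultures in leucine-free medium were sorted into four equal gates by GFP/Cherry fluorescence ratio, and plasmids from each gate were PCR-amplified and Illumina-sequenced, with reads assigned to strains by barcodes. The protein stability index for each peptide was each gate's read frequency times its gate number, summed.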

Sequence	protein stability index (doa10∆)	protein stability index (pdr5∆)	protein stability index (san1∆)	protein stability index (ubr1∆)
SKNPLSLTEATKTNVDN [YLR335W/NUP2]	3.01 ± 0.065	3.01 ± 0.069	3.28 ± 0.11	3.31 ± 0.092
IQRLRLLREKQRVRNMR [YOR098C/NUP1]		1.28 ± 0.086		1.41 ± 0.26
ERKSKTYVITKNGKIYL [RET1]	2.76 ± 0.051	2.54 ± 0.057	2.5 ± 0.059	2.47 ± 0.035
MKATSNTLEEFEHGRTP [FAS2]	2.8 ± 0.08	2.56 ± 0.16	1.38 ± 0.15	3.66 ± 0.12
YSSWSAQTIGRNSKTVR [PRE6]	2.62 ± 0.14	2.9 ± 0.14	2.91 ± 0.12	2.85 ± 0.098
FEYCRIDGSTSHEERIE [ISW2]	2.44 ± 0.047	2.23 ± 0.052	2.01 ± 0.061	2.49 ± 0.05
VVDILSANGYLNATTAM [BRR2]	2.75 ± 0.21	3.3 ± 0.22	3.17 ± 0.16	3.06 ± 0.2
PPKEGNYEIVFDTVSNK [YMR129W/POM152]	3.11 ± 0.086	3.13 ± 0.095	3.29 ± 0.26	3 ± 0.1
DVYTLPSYVHFKVQIIE [YML103C/NUP188]	1.61 ± 0.055	1.71 ± 0.05	1.43 ± 0.069	1.66 ± 0.033
NEGAASSNPQSAYVKAF [SMC1]	2.62 ± 0.051	2.6 ± 0.053	2.5 ± 0.032	2.69 ± 0.027
ESSDFGAIILTKMDGHA [SRP54]	2.42 ± 0.1	2.74 ± 0.094	2.91 ± 0.11	2.8 ± 0.077
DSIPLRITNSFYSTNSQ [RPN9]	2.56 ± 0.14	2.65 ± 0.13	2.58 ± 0.18	2.9 ± 0.21
EDEGEERESSGAKDAEK [RPC17]	2.93 ± 0.18	3.38 ± 0.28		3.65 ± 0.16
KTFDYVSDHLDAIYREL [SMC1]	3.31 ± 0.096	3.34 ± 0.12	3.37 ± 0.074	3.12 ± 0.1
NRAEGPEELARILQQLK [RGR1]	3.21 ± 0.11	3.17 ± 0.19	3.19 ± 0.12	3.62 ± 0.097
ASFQIVEEDHTLGNALR [RPC19]	2.74 ± 0.21	2.22 ± 0.23		3.35 ± 0.26
ETDHKTNENGETDDNIE [SRB4]	3.01 ± 0.22	3.57 ± 0.15	3.08 ± 0.083	3.21 ± 0.089
KARAKKTKKEKGPNEEE [RPN2]	3.45 ± 0.22	3.37 ± 0.15	3.43 ± 0.064	3.15 ± 0.18
ELCKKNESKIKELNEKI [RPN7]	3.2 ± 0.12	2.73 ± 0.098	2.27 ± 0.11	2.47 ± 0.13
LGMMYEQKLIDQHVINI [YCS4]	2.08 ± 0.061	2.28 ± 0.051	2.21 ± 0.064	2.08 ± 0.05
VNFTEIGGLIPQWKRHL [YCS4]	3.46 ± 0.25			
KGTVFQFEIPISDDDDS [POP4]	3.3 ± 0.17	2.47 ± 0.15	2.29 ± 0.15	3.13 ± 0.042
KPNIILDEDDTNDGIER [RPC31]	3.42 ± 0.076	3.27 ± 0.085	3.31 ± 0.051	3.27 ± 0.043
KSNDSEGDFLKSIIGKL [POP1]	1.28 ± 0.12	2.91 ± 0.088	1.93 ± 0.11	1.3 ± 0.15
RNVVEDINQAKDFIENV [BRN1]	3.25 ± 0.13	3.31 ± 0.097	3.24 ± 0.078	3.25 ± 0.072
KPAEKNNNETSKPAFSF [YJL041W/NSP1]	1.65 ± 0.15	1.98 ± 0.06	2.24 ± 0.16	1.64 ± 0.11

Sequence	protein stability index (doa10∆)	protein stability index (pdr5∆)	protein stability index (san1∆)	protein stability index (ubr1∆)
GAMGLLSSAGAKSTVET [RIP1]	2.01 ± 0.12	2.46 ± 0.11	2.14 ± 0.18	2.35 ± 0.09
MSSQISSLIPHCITSIT [MTR3]	1.77 ± 0.061	2.08 ± 0.061	2.07 ± 0.073	2.47 ± 0.075
DHSMILPSGVLSRGDDE [SMC3]	3.08 ± 0.094	2.51 ± 0.082	2.19 ± 0.12	2.39 ± 0.04
LSEDKKKLDYVLALKVE [RPS9A]	1.31 ± 0.17	2.22 ± 0.23	1.41 ± 0.16	1.49 ± 0.29
INAVLVNDNDERAARVV [RPO31]	2.88 ± 0.12	3.04 ± 0.13	2.94 ± 0.097	2.56 ± 0.084
HVRKVKLLKQPKFDVGA [RPS1A]	2.21 ± 0.062	2.5 ± 0.085	2.28 ± 0.073	2.2 ± 0.067
GSSDEDLKSLNVRDDMK [SSN2]	3.29 ± 0.13	3.58 ± 0.11	3.38 ± 0.078	3.2 ± 0.11
LYLQDSNDKFVHVQLLI [SRB8]	1.96 ± 0.055	2.06 ± 0.057	1.93 ± 0.066	2.17 ± 0.042
TSLPDWCQEAFPSSETT [BRR2]	2.93 ± 0.075	3.08 ± 0.099	3.25 ± 0.072	3.01 ± 0.15
IELLSLDDDSIVNHEQD [SRB4]	2.9 ± 0.1	3.19 ± 0.089	3.4 ± 0.083	3.12 ± 0.088
NSPNYFVAKLAAQIFGS [COR1]	1.84 ± 0.044	2.02 ± 0.061	1.68 ± 0.08	2.12 ± 0.049
EREQCRAGGAAASLIMP [PRE7]	3.02 ± 0.24	2.92 ± 0.19	3.43 ± 0.18	2.89 ± 0.1
TFSPSGKLGQIDYALTA [PRE8]	2.61 ± 0.14	2.26 ± 0.092	2.67 ± 0.12	2.85 ± 0.064
LTMHKIIQLILWSIHPS [SRB8]	1.62 ± 0.047	1.53 ± 0.047	1.61 ± 0.088	1.53 ± 0.044
EYRPFSKKVLECLPAEG [DIS3]	1.39 ± 0.13	1.68 ± 0.12	1.46 ± 0.1	1.56 ± 0.068
DMGMQQELCYPDENHDN [BRN1]	3.22 ± 0.073	3.28 ± 0.06	2.99 ± 0.059	3.33 ± 0.055
EGDQAEVIFSFEGTPPF [YMR129W/POM152]	3.29 ± 0.17	3.39 ± 0.17	2.52 ± 0.21	3.36 ± 0.1
DDFQNFFDPKPFDQNLD [SWI1]	2.53 ± 0.061	1.95 ± 0.055	2.13 ± 0.1	2.12 ± 0.052
RYQHLEKITQISLLCKN [PCI8]	1.23 ± 0.066	1.5 ± 0.051	1.25 ± 0.11	1.22 ± 0.048
FLRTMKLTSEETVFNYR [GRR1]	3.11 ± 0.066	2.81 ± 0.067	3 ± 0.06	3.02 ± 0.052
KGSVAAKTFLEKRWNDE [PRE8]	2.38 ± 0.18	1.28 ± 0.17		
VITLAEYEKRNHGGSLG [SRP68]	3.42 ± 0.11	3.06 ± 0.13	3.28 ± 0.074	3.55 ± 0.14
IVNGTEKVILVQEQLSK [RET1]	1.54 ± 0.13	2.22 ± 0.057	1.53 ± 0.11	2.29 ± 0.088
LDPTDDEGHVLKLENLH [SIN4]		3.16 ± 0.23	3.12 ± 0.13	
AANEGTAVSFVSAAEDE [PRP28]	2.96 ± 0.24	3.46 ± 0.23	3.01 ± 0.19	
KIELIKNNLLIPDLSIQ [RPN12]	2.75 ± 0.055	2.23 ± 0.042	2.66 ± 0.046	2.06 ± 0.036
